Measured values reported in US12064464B2, “Plantaricin NC8 alpha beta markedly enhances the effects of antibiotics” (priority 2018, dated 2024).
“Also recorded” adds a separate entry of the source. Read-outs that look alike come from different tables or passages of the source.

What was measured:
Enterococcus faecium = experiment: Broth microdilution MIC/MBC; assay type: cell-based; settings: for MBC / MIC: peptide alone
Excerpt: (§1) Staphylococcus aureus CCUG 35601 (MRSA, Culture Collection, University of Gothenburg) and Staphylococcus aureus ATCC 29213 (MSSA, ATCC, Manassas, VA). Staphylococcus epidermidis ATCC 12228 (ATCC, Manassas, VA), RP62A, N15 and 10 clinical isolates of Staphylococcus epidermidis that have previously been characterized. Isolated Escherichia coli, Enterococcus faecium (including VRE), Pseudomonas aeruginosa, Klebsiella pneumoniae, Enterobacter spp and Acinetobacter baumannii were obtained from Orebro University hospital. Isolated Streptococcus mutans, Streptococcus constellatus and Streptococcus anginosus were obtained from Malmo University. The bacteria were grown on Luria-Bertani (LB) agar plates, supplemented with 5% defibrinated horse blood, and incubated at 37° C. overnight. Single colonies were inoculated into 5 ml of LB broth and incubated on a shaker (300 rpm) at 37° C. overnight. The bacterial concentration was determined by viable count and adjusted to correlate with approximately 10^9 CFU/ml.
(§2) The broth microdilution method was used to determine minimal inhibitory concentration (MIC) and minimal bactericidal concentration (MBC). Two-fold serial dilutions of the peptides were used and the final concentrations ranged from 0.097-50 μM. […] The effect of bacteriocin-antibiotic combinations was accomplished by using the same concentration series of antibiotics with a constant concentration of PLNC8 αβ (3.1 μM) in all the wells. […] All experiments were repeated at least three times.

Escherichia coli = experiment: Broth microdilution MIC/MBC; assay type: cell-based; settings: for MBC / MIC: peptide alone
Excerpt: as §1, §2

Pseudomonas aeruginosa = experiment: Broth microdilution MIC/MBC; assay type: cell-based; settings: for MBC / MIC: P. aeruginosa, peptide alone
Excerpt: as §1, §2

[1] = test system: S. aureus (MSSA and MRSA); experiment: Sytox Green lysis and time-kill assay; assay type: cell-based, Staphylococcus aureus
Description: The fluorescent dye Sytox® Green, which can only cross damaged membranes and fluoresce upon binding to nucleic acids, was used to study the antimicrobial activity of PLNC8 αβ on S. epidermidis, S. aureus (MSSA, MRSA) and Streptococcus spp. The bacteria were washed and resuspended in Krebs-Ringer Glucose buffer (KRG) (120 mM NaCl, 4.9 mM KCl, 1.2 mM MgSO4, 1.7 mM KH2PO4, 8.3 mM Na2HPO4, and 10 mM glucose, pH 7.3) and incubated in the presence or absence of different combinations of PLNC8 αβ in 96-well microtiter plates for 2 min. Images were captured with Olympus BX41 at 40× magnification.

HaCaT cells = experiment: Scratch assay and ELISA on keratinocytes; assay type: cell-based, human; settings: uninfected cells, 24 h
Description: Human keratinocytes (HaCaT) were cultured in Dulbecco's modified Eagle medium (DMEM, Fisher Scientific, New York, USA) supplemented with 10% FBS (FBS, Invitrogen Ltd, Paisley, UK) incubated in a stable environment at 95% air, 5% CO2 and 37° C. The cells were used at passages 1-20.
HaCaT cells were cultured overnight in a 24-well plate at a seed-count of 2×10^5 cells per well. […] Co-stimulation was performed by infection of human keratinocytes, in the presence or absence of PLNC8 αβ, for 24 h, or infection of the cells for 1 h followed by addition of different concentrations of PLNC8 αβ for 6 h. Furthermore, infection of keratinocytes, with or without PLNC8 αβ, were monitored in real-time for 72 hours using IncuCyte Live-cell Analysis System. Bacterial load was quantified by measuring the fluorescence of green fluorescent protein (GFP) and cell viability was determined by measuring the fluorescent dye Draq7 that stains nuclei of dead cells.
ELISA was performed on supernatants retrieved from human keratinocytes that were exposed to MSSA and PLNC8 αβ. The levels of CXCL8 (Human IL-8 ELISA MAX Deluxe, Nordic Biosite, Sweden) and IL-6 (Human IL-6 ELISA MAX Deluxe, Nordic Biosite, Sweden) were quantified according to the manufacturer's instructions.

Porphyromonas gingivalis = settings: references 1, 2; cited from earlier work
[2] = Vancomycin resistant E. faecium (VRE)
[3] = ESBL-producing E. coli, first isolate
[4] = ESBL-producing E. coli, second isolate
[5] = Non-ESBL E. coli, first isolate
[6] = Non-ESBL E. coli, second isolate

B1: PLNC8 αβ: two-peptide class IIb bacteriocin of L. plantarum NC8: PLNC8 α (SEQ ID NO 1) with PLNC8 β (SEQ ID NO 2) (peptide)
alpha: DLTTKLWSSWGYYLGKKARWNLKHPYVQF
beta: SVPTSVYTLGIKILWSAYKHRKTIEKSFNKGFYH
modifications: Lactobacillus plantarum NC8
For B1, which “effect of peptide alone on Enterococcus faecium” value (Enterococcus faecium) is on record?
Its value is “permeabilized and killed”.

What about the “effect of sub-MIC peptide on antibiotics” value (Enterococcus faecium) of the same molecule?
Its value is “significantly enhanced the effects of different antibiotics”.

What about the MBC (Enterococcus faecium; E. faecium, first isolate) of the same molecule?
Its MBC is 6.25 µM.

What about the MIC (Enterococcus faecium; E. faecium, first isolate) of the same molecule?
Its MIC is 6.25 µM.

And the MBC (Enterococcus faecium; E. faecium, second isolate)?
The MBC was 6.25 µM.

And the MIC (Enterococcus faecium; E. faecium, second isolate)?
Its MIC is 3.1 µM.

What about the MBC (Enterococcus faecium; [2]) of the same molecule?
The MBC was 25 µM.

What about the MIC (Enterococcus faecium; [2]) of the same molecule?
The MIC was 3.1 µM.

What about the “effect of peptide alone on Enterococcus faecium” value (Enterococcus faecium; listed as PLNC8αβ) of the same molecule?
Its value is “both inhibitory and bactericidal”.

What about the “effect of peptide alone on Escherichia coli” value (Escherichia coli) of the same molecule?
The value was “permeabilized and killed”.

What about the “effect of sub-MIC peptide on antibiotics” value (Escherichia coli) of the same molecule?
Its value is “significantly enhanced the effects of different antibiotics”.

And the MBC (Escherichia coli; [3])?
The MBC was >50 µM.

What about the MIC (Escherichia coli; [3]) of the same molecule?
Its MIC is >50 µM.

And the MBC (Escherichia coli; [4])?
Its MBC is >50 µM.

What about the MIC (Escherichia coli; [4]) of the same molecule?
Its MIC is >50 µM.

What about the MBC (Escherichia coli; [5]) of the same molecule?
The MBC was >50 µM.

What about the MIC (Escherichia coli; [5]) of the same molecule?
Its MIC is >50 µM.

And the MBC (Escherichia coli; [6])?
The MBC was >50 µM.

What about the MIC (Escherichia coli; [6]) of the same molecule?
The MIC was >50 µM.

And the “effect of peptide alone on Escherichia coli” value (Escherichia coli; listed as PLNC8αβ)?
Its value is “did not affect the growth; also recorded: does not affect the growth”.

What about the “effect of peptide alone on Pseudomonas aeruginosa” value (Pseudomonas aeruginosa) of the same molecule?
The value was “permeabilized and killed”.

And the “effect of sub-MIC peptide on antibiotics” value (Pseudomonas aeruginosa)?
The value was “enhanced the effects of different antibiotics”.

What about the MBC (Pseudomonas aeruginosa; first isolate) of the same molecule?
The MBC was >50 µM.

And the MIC (Pseudomonas aeruginosa; first isolate)?
Its MIC is >50 µM.

What about the MBC (Pseudomonas aeruginosa; second isolate) of the same molecule?
Its MBC is >50 µM.

And the MIC (Pseudomonas aeruginosa; second isolate)?
The MIC was >50 µM.

And the “effect of peptide alone on Pseudomonas aeruginosa” value (Pseudomonas aeruginosa; listed as PLNC8αβ)?
Its value is “did not affect the growth; also recorded: does not affect the growth”.

What about the “lysis and killing of S. aureus” value [1] of the same molecule?
Its value is “dose-dependently and rapidly lysed and killed S. aureus”.

What about the “IL-6 and CXCL8” value (HaCaT cells) of the same molecule?
Its value is “not altered”.

And the “wound healing (scratch assay)” value (HaCaT cells)?
The value was “promoted wound healing in vitro”.

What about the “activity against Porphyromonas gingivalis” value (Porphyromonas gingivalis) of the same molecule?
Its value is “efficient against the periodontal pathogen Porphyromonas gingivalis”.
